Values joined by “and” are separate entries in the source; they are usually repeats but may differ in a detail not shown here. Equal values may be shown once.
B1: Forkhead box protein P1, Q9H334 (parent)
chain: MMQESGTETKSNGSAIQNGSGGSNHLLECGGLREGRSNGETPAVDIGAADLAHAQQQQQQALQVARQLLLQQQQQQQVSGLKSPKRNDKQPALQVPVSVAMMTPQVITPQQMQQILQQQVLSPQQLQVLLQQQQALMLQQQQLQEFYKKQQEQLQLQLLQQQHAGKQPKEQQQVATQQLAFQQQLLQMQQLQQQHLLSLQRQGLLTIQPGQPALPLQPLAQGMIPTELQQLWKEVTSAHTAEETTGNNHSSLDLTTTCVSSSAPSKTSLIMNPHASTNGQLSVHTPKRESLSHEEHPHSHPLYGHGVCKWPGCEAVCEDFQSFLKHLNSEHALDDRSTAQCRVQMQVVQQLELQLAKDKERLQAMMTHLHVKSTEPKAAPQPLNLVSSVTLSKSASEASPQSLPHTPTTPTAPLTPVTQGPSVITTTSMHTVGPIRRRYSDKYNVPISSADIAQNQEFYKNAEVRPPFTYASLIRQAILESPEKQLTLNEIYNWFTRMFAYFRRNAATWKNAVRHNLSLHKCFVRVENVKGAVWTVDEVEFQKRRPQKISGNPSLIKNMQSSHAYCTPLNAALQASMAENSIPLYTTASMGNPTLGNLASAIREELNGAMEHTNSNESDSSPGRSPMQAVHPVHVKEEPLDPEEAEGPLSLVTTANHSPDFDHDRDYEDEPVNEDME

Variants of: B1
Conditions: Homo sapiens, 37 °C, GdnHCl, fluorescence, transition: 3, structure 2KIU, whole UniProt chain shown

## S518C
pH 5
  denaturant m value: 3.2 kcal/mol/M and 1.4 kcal/mol/M
pH 7.8
  denaturant m value: 2.7 kcal/mol/M and 2 kcal/mol/M

## H520A
pH 5
  denaturant m value: 5.8 kcal/mol/M
  unfolding free energy: 17.9 kcal/mol
pH 7.8
  denaturant m value: 6.6 kcal/mol/M
  unfolding free energy: 20.2 kcal/mol

## V539C
pH 5
  denaturant m value: 3.1 kcal/mol/M and 1.1 kcal/mol/M
  unfolding free energy: 1.4 kcal/mol and 4.2 kcal/mol
